Reference: patent EP4705353A2 (dated 2026)
Values belong to the binder of their own block, whether it stands above or below them.

Legend:
[1] = target: T1, human B7H3-Fc recombinant protein (human, UniProt Q5ZPR3 29-466, limits assumed); assay: ELISA, human B7H3-Fc coated at 2 ug/mL, anti-Flag HRP detection; footnote of Table 5: NA: low binding to B7H3 protein
T1 construct: Recombinant Fc fusion; also called human B7H3-Fc (full length); B7H3 recombinant protein; not shown: Fc part
T1 sequence (looked up): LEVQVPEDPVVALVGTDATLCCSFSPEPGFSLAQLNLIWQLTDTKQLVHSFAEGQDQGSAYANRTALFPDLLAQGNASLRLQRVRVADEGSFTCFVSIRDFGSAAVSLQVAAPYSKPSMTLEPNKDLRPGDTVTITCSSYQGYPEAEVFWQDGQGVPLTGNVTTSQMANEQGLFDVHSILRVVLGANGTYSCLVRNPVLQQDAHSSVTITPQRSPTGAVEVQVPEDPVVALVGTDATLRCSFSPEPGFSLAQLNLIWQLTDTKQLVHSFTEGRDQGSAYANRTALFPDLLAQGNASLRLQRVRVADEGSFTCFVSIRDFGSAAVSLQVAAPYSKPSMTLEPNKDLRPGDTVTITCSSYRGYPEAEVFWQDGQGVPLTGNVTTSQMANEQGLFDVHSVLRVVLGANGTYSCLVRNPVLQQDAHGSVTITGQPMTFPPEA

[2] = target: T2, full length human B7H3 expressed on CHOK1 cells (human, UniProt Q5ZPR3 29-534); assay: FACS, VH titrated with or without 20 nM Enoblituzumab as competitor
T2 construct: whole, on cells; also called B7H3/CHOK1; B7H3/CHOK1 full length; not shown: C-terminal flag and Myc tags from the pCMV6-Entry vector
T2 sequence (looked up): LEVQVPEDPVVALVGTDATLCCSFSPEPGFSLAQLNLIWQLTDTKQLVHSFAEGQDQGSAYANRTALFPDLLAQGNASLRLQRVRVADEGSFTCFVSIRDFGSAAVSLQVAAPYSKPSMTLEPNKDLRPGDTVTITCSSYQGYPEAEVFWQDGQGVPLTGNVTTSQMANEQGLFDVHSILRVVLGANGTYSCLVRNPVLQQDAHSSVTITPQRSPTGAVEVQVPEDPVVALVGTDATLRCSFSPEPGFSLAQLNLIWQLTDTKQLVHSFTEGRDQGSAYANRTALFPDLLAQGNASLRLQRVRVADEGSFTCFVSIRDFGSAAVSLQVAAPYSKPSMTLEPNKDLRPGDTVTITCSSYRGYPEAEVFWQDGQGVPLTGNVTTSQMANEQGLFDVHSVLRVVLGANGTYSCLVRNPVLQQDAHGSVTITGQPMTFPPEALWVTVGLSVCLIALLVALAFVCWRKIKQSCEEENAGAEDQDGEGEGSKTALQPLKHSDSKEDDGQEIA

binding result [1]: binds | binding result [2]: binds
B1: BH-03 anti-B7H3 VH antibody (VHH)
VH: QVQLVESGGGVVQPGRSPRLSCAASGFTFSSYAMHWVRQAPGKGLEWVAVISYDGSNKYYADSVKGRFTISRDNSKNTLYLQMNSLRAEDTAVYYCARDLARLVAGLDYWGQGTLVTVSS
notes: Human heavy chain-only (VH) antibody made in E. coli with a C-terminal flag and 6xHis tag; not shown: C-terminal flag and 6xHis tag

binding result [2]: binds
B2: BH-01 anti-B7H3 VH antibody (VHH)
VHH: QVTLKESGPTVVNPTQTLTLTCTFSGFSLTTSPVGVGWLRQPPGQALEWLALIYWDDDKRYSPSLKSRLTITKNTSRNQVVLTMMNMDPVDTATYYCAHRVYYTGNWDGGSFDYWGQGTLVTVSS
notes: Human heavy chain-only (VH) antibody made in E. coli with a C-terminal flag and 6xHis tag; also called BH-1; not shown: C-terminal flag and 6xHis tag
